One substance from patent publication US20230159643A1 can be followed below.

In the experiment the target is Sortilin SORTECD_HIS (human) (UniProt Q99523). Briefly: HTRF: displacement of PGRN binding to His-tagged Sortilin ECD. (In general: TR-FRET usually uses a lanthanide donor and a delayed reading to cut background.)

Some results are limits rather than exact numbers.

Sequence of Sortilin SORTECD_HIS (human) (Q99523 other isoform, or with tags, fused parts or gaps limits assumed): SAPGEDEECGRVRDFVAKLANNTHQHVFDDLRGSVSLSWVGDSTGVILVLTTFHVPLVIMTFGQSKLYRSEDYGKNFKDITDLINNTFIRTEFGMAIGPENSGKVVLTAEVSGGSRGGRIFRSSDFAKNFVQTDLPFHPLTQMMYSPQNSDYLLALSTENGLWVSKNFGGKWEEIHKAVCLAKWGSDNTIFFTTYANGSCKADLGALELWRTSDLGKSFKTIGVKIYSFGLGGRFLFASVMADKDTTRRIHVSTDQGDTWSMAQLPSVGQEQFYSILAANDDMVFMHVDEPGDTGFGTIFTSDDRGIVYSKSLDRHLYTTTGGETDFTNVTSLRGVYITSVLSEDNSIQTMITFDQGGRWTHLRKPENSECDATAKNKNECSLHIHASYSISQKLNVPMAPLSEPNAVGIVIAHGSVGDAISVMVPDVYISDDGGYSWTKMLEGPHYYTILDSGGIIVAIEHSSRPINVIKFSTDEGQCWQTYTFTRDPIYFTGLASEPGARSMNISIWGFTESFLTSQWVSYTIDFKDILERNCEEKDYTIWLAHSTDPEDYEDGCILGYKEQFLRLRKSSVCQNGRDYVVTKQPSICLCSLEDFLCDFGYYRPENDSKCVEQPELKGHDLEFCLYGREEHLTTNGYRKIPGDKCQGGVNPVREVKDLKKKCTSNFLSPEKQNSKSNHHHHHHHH

Broadly, the IC50 is the point on the concentration scale where inhibition reaches its midpoint. A low value points to greater potency in that assay. The substance IgG1-b12 (antibody) returned an IC50 of over 1 µM.
